Paper PMC11041675

B1: SLP4 (structured_RNA)
RNA: GGGAUUCUCGUAACUACAUAGCACAAGUAGAUGUAGUUAACUUUAAUCUCACAGCAAUGUGAUUUUAAUAGCUUCUUAGGAGAAU
B2: rd85 (structured_RNA)
RNA: GGGAAUAUACUAAUAUUGGUUGAGUUGUCCAAGCUCUAAUUGUGUCCUUUAGCUGUACGGAUUAUAAAAGUAAUAGGGAUGUGUU
B3: PK (structured_RNA)
RNA: GGGUCUUGUGCAGAAUGAAUUCUCGUAACUACAUAGCACAAGUAGAUGUAGUUA
B4: PKP4 (structured_RNA)
RNA: GGGCUUGUGCAGAAUGAAUUCUCGUAACUACAUAGCACAAGUAGAUGUAGUUAACUUUAAUCUCACAGCAAUGUGAUUUUAAUAGCUUCUUAGGAGAAU

How the values were obtained:
Assay in all cases: EMSA
[1] = target: nsp7;nsp8 (SARS-CoV-2;SARS-CoV-2, UniProt P0DTD1;P0DTD1 3860-3942;3943-4140, |)
[2] = target: nsp8 (SARS-CoV-2, UniProt P0DTD1 3943-4140)
[3] = target: nsp7 (SARS-CoV-2, UniProt P0DTD1 3860-3942)

Binder	Kd [1] [µM]	binding result [2]	binding result [3]
B1	2.4	binds	no binding
GGAUUCUCGUAACUACAUAGCACAAGUAGAUGUAGUUACUUAGGAGAAU (structured_RNA) [SL]	5.7	binds	no binding
B2	3.7	–	–
B3	5.3	binds	no binding
B4	2.6	binds	no binding
